Test [1] addresses T1, CD22 peptide on HLA-A*02:05 (human).
T1 peptide: FLSNDTVQL
The test can be described thus: cytokine release.

Test [2] has as its target T2, CD22 peptide on HLA-A*02:10 (human).
T2 peptide: FLSNDTVQL
The test can be described thus: cytokine release.

The target of test [3] is T3, CD22 peptide on HLA-A*02:02 (human).
T3 peptide: FLSNDTVQL
The experiment in a line: cytokine release.

Test [4] has as its target T4, CD22 peptide on HLA-A*02:07 (human).
T4 peptide: FLSNDTVQL
The experiment in a line: cytokine release.

Test [5] addresses T5, CD22 peptide on HLA-A*02:04 (human).
T5 peptide: FLSNDTVQL
The experiment in a line: cytokine release.

The target of test [6] is T6, CD22 peptide on HLA-A*02:08 (human).
T6 peptide: FLSNDTVQL
The experiment in a line: cytokine release.

Test [7] addresses T7, CD22 peptide on HLA-A*02:01 (human).
T7 peptide: FLSNDTVQL
The test can be described thus: killing.

Test [8] concerns the target CD22 peptide … (SEQ ID NO: 1) in the context of HLA-A*02:01 (human). The test can be described thus: cell-based or functional assay.
The target in test [9] is T7, CD22 peptide on HLA-A*02:01. The test can be described thus: cytokine release.

B1: CD22 TCR (TCR, V domains shown)
Valpha: EDKVVQSPLSLVVHEGDTVTLNCSYEVTNFRSLLWYKQEKKAPTFLFMLTSSGIEKKSGRLSSILDKKELFSILNITATQTGDSAVYLCAVDNQGGKLIFGQGTELSVKP
Vbeta: GAVVSQHPSWVICKSGTSVKIECRSLDFQATTMFWYRQFPKQSLMLMATSNEGSKATYEQGVEKDKFLINHASLTLSTLTVTSAHPEDSSFYICSARPSGVYNEQFFGPGTRLTVL
Take B1: the binding result in [1] is “recognises”; in test [2] it was “recognises”; in test [3], “no recognition”; in test [4], “recognises”; in test [5] it was “recognises”; in [6] it was “no recognition”. In [7], the binding result is listed as “recognises”. Moreover, the Kd value by peptide titration on T2 cells (50% of maximal IFNγ release, ELISA) in test [8] is 1.1e-08.

B2: CD22 TCR 3225 (TCR, V domains shown)
Valpha: EDKVVQSPLSLVVHEGDTVTLNCSYEVTNFRSLLWYKQEKKAPTFLFMLTSSGIEKKSGRLSSILDKKELFSILNITATQTGDSAVYLCAVDNQGGKLIFGQGTELSVKP
Vbeta: GAVVSQHPSWVICKSGTSVKIECRSLDFQATTMFWYRQFPKQSLMLMATSNEGSKATYEQGVEKDKFLINHASLTLSTLTVTSAHPEDSSFYICSAREAGVYNEQFFGPGTRLTVL
Regarding B2, in test [9], the binding result is recorded as “recognises”. This molecule also returned a Kd value by peptide titration on T2 cells (50% of maximal IFNγ release, ELISA) in test [8] of 2.2e-08.

Values taken from patent US20220064256A1 (published 2022).
